{
  "source": "paper doi:10.1101/2021.12.04.471219",
  "about": "(bioRxiv, 2021)",
  "test_in_all_cases": "MST",
  "key": {"[1]": {"target": "MLLT4 PDZ domain (residues 961-1056) (human) (UniProt P55196)"}, "[2]": {"target": "T1, ZO-1 PDZ2 domain (residues 184-264) (human, UniProt Q07157 184-264)", "T1 sequence": "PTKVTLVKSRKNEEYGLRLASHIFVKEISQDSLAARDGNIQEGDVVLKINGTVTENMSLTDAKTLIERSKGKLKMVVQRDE"}, "[3]": {"target": "T2, LNX2 PDZ2 domain (residues 334-426) (human, UniProt Q8N448 334-426)", "T2 sequence": "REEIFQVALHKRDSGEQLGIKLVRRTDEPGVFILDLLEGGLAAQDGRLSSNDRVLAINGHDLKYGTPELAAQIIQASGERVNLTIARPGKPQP"}, "[4]": {"target": "PARD3 PDZ3 domain (residues 582-685) (human, UniProt Q8TEW0 582-685)", "sequence (Q8TEW0 582-685)": "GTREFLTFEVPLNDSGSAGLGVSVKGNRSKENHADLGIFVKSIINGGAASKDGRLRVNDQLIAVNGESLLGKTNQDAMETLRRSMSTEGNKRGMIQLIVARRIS"}, "[5]": {"target": "T3, MPP5 PDZ domain (residues 238-336) (human, UniProt Q8N3R9 238-336)", "T3 sequence": "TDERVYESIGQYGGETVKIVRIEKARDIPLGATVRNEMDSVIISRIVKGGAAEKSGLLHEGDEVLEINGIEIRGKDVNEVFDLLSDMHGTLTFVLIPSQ"}},
  "note": "Where no end group is shown, it is not given here.",
  "data": [
    {"binder": "NLNSSRVLDLLV (not fully specified)", "note": "[C-terminal SARS-CoV-2-E PBM P71L mutant peptide (12-mer, beta variant B.1.351)]", "values": [
      {"measurement": "Kd", "setting": "[1]", "value": "> 1000", "unit": "µM"},
      {"measurement": "Kd", "setting": "[2]", "value": 133, "unit": "µM"},
      {"measurement": "Kd", "setting": "[3]", "value": 47, "unit": "µM"},
      {"measurement": "Kd", "setting": "[4]", "value": "> 1000", "unit": "µM"},
      {"measurement": "binding result", "setting": "[5]", "value": "binds"}
    ]}
  ]
}
